From PMC10783122, “Loss of Bacteroides thetaiotaomicron bile acid-altering enzymes impacts bacterial fitness and the global metabolic transcriptome” (Microbiology Spectrum, 2023) come the findings set out here.

Common to all, as to experiment: purified protein
Holding throughout (format): biochemical, Bacteroides thetaiotaomicron
Conditions in all cases: 5 mM NAD+, 10 mM MOPS, 37 °C, 0.2 nM enzyme

Substrate in data set [1]: C[C@H](CCC(=O)NCC(=O)O)[C@H]1CC[C@H]2[C@@H]3[C@H](O)C[C@@H]4C[C@H](O)CC[C@]4(C)[C@H]3CC[C@]12C
Substrate in data set [2]: C[C@H](CCC(=O)NCCS(=O)(=O)O)[C@H]1CC[C@H]2[C@@H]3[C@H](O)C[C@@H]4C[C@H](O)CC[C@]4(C)[C@H]3CC[C@]12C
Substrate in data set [3]: C[C@H](CCC(=O)O)[C@H]1CC[C@H]2[C@@H]3[C@H](O)C[C@@H]4C[C@H](O)CC[C@]4(C)[C@H]3CC[C@]12C
Substrate in data set [4]: C[C@H](CCC(=O)O)[C@H]1CC[C@H]2[C@@H]3[C@H](O)C[C@@H]4C[C@H](O)CC[C@]4(C)[C@H]3C[C@H](O)[C@]12C

B1: HSDHa (BT_1911), 7α-hydroxysteroid dehydrogenase (Bacteroides thetaiotaomicron VPI-5482) (protein)
chain: MKRFENKVVVITGAAGGIGEATTRRIVSEGGKVVIADLSQERADKLAAELTQAGADVRPIYFSATELQSCKELVDFAMKEYGQIDVLINNVGGTDPKRDLNIEKLDIDYFDEVFHLNLCCTMYLSQQVIPIMTTHGGGNIVNVASISGLTADANGTLYGASKAGVINLTKYIATQMGKKNIRCNAVAPGLVLTPAALDNLNEEVRNIFLGQCATPYLGEPEDVAATIAFLASNDARYITGQTIVVDGGLTIHNPTVELS
notes: full-length codon-optimized gene, pETite C-His, C-terminal hexahistidine tag, E. coli Rosetta (DE3) pLysS, cobalt resin purified
Regarding B1, the Km in “purified protein [1]” came to 342.2 ± 104.1 µM; in the data set “purified protein [2]”, 301.2 ± 60.4 µM; in the data set “purified protein [3]” it was 203.4 ± 24.3 µM; in “purified protein [4]”, 649.2 ± 167.6 µM. In addition, the kcat in the data set “purified protein [1]” was 4090 ± 292 s⁻¹; in “purified protein [2]” it was 4520 ± 681 s⁻¹; in the data set “purified protein [3]”, 4580 ± 375 s⁻¹; in “purified protein [4]” it was 4070 ± 195 s⁻¹.

Broadly, the Km is the substrate concentration at which the rate is half of its maximum. As usually defined, the kcat is the maximal rate divided by the concentration of active sites.
